Read-outs that look alike come from different tables or passages of the source.
Columns and labels:
[1] = biological target: HLA-A*1101 (human); settings: for binding affinity ratio relative to standard peptide (A*1101): scale: ratio
[2] = biological target: HLA-A*0301 (human)
[3] = remark: other sources report otherwise

MLIQPPKLR (modifications not checked) [HPV31 E1 285 … (SEQ ID NO: 41814)]
relative binding ratio (IC50 of standard peptide / IC50 of test peptide) [1]: 0.0014

NSNAAAFLK (modifications not checked) [HPV33 E1 379 peptide … (A11 motif peptide, 9 amino acids)]
relative binding ratio (IC50 of standard peptide / IC50 of test peptide) [1]: 0.37

GLSFTDLVR (modifications not checked) [HPV45 E1 209 … (SEQ ID NO: 43622)]
relative binding ratio (IC50 of standard peptide / IC50 of test peptide) [1]: 0.0025

LVRNFKSDK (modifications not checked) [HPV45 E1 215 peptide … (SEQ ID NO: 43696)]
relative binding ratio (IC50 of standard peptide / IC50 of test peptide) [1]: 0.0002

NSNAAAFLK (modifications not checked) [HPV45 E1 379 peptide … (SEQ ID NO: 43719)]
binding affinity ratio relative to standard peptide (A*1101) [1]: 0.37

SVAALYWYR (modifications not checked) [HPV45 E1 308 peptide … (SEQ ID NO: 43764)]
binding affinity ratio relative to standard peptide (A*1101) [1]: 8.8

DCATMCRHYK (modifications not checked) [HPV16 E1 peptide … (position 404, 10 amino acids)]
relative binding ratio (IC50 of standard peptide / IC50 of test peptide) (ratio to standard peptide) [2]: 0.0044

SMSQWIKYR (modifications not checked) [HPV16 E1 421 …]
binding affinity ratio (IC50 of standard peptide / IC50 of test peptide) [2]: 0.69

TAAALYWYK (modifications not checked) [HPV16 E1 315 …]
binding affinity ratio (IC50 of standard peptide / IC50 of test peptide) [2]: 0.78

CTELQTTIH (modifications not checked) [HPV16 E6 position 23 peptide …]
binding affinity ratio (IC50 of the standard peptide / IC50 of the test peptide) [2]: 0.0002

CVYCKQQLLR (modifications not checked) [HPV16 E6 position 37 peptide …]
binding affinity ratio (IC50 of the standard peptide / IC50 of the test peptide) [2]: 0.0001

DIILECVYCK (modifications not checked) [HPV16 E6 position 32 peptide …]
binding affinity ratio (IC50 of the standard peptide / IC50 of the test peptide) [2]: 0.0065

GTTLEQQYNK (modifications not checked) [HPV16 E6 position 92 peptide …]
binding affinity ratio (IC50 of the standard peptide / IC50 of the test peptide) [2]: 0.0002

HDIILECVY (modifications not checked) [… (HPV16 E6, position 31)]
relative binding ratio (IC50 of standard peptide / IC50 of test peptide) (ratio to standard peptide) [2]: 0.0002

IILECVYCK (modifications not checked) [… (HPV16 E6, position 33)]
relative binding ratio (IC50 of standard peptide / IC50 of test peptide) (ratio to standard peptide) [2]: 0.0016

KFYSKISEY (modifications not checked)
relative binding ratio (IC50 of standard peptide / IC50 of test peptide) (ratio to standard peptide) [2, 3]: 0.0015

KFYSKISEYR (modifications not checked)
relative binding ratio (IC50 of standard peptide / IC50 of test peptide) (ratio to standard peptide) [2]: 0.0067

KISEYRHYCY (modifications not checked) [… (HPV16 E6, position 79)]
relative binding ratio (IC50 of standard peptide / IC50 of test peptide) (ratio to standard peptide) [2]: 0.0043

LIRCINCQK (modifications not checked) [… (HPV16 E6, position 107)]
relative binding ratio (IC50 of standard peptide / IC50 of test peptide) (ratio to standard peptide) [2]: 0.0025

LLIRCINCQK (modifications not checked) [… (HPV16 E6, position 106)]
relative binding ratio (IC50 of standard peptide / IC50 of test peptide) (ratio to standard peptide) [2]: 0.021

TTLEQQYNK (modifications not checked) [… (HPV16 E6, position 93)]
relative binding ratio (IC50 of standard peptide / IC50 of test peptide) (ratio to standard peptide) [2]: 0.01

ALLRYKCGK (modifications not checked) [HPV18 E1 peptide … (position 284, 9 amino acids)]
binding affinity ratio (IC50 of standard peptide / IC50 of test peptide) [2]: 0.09

CATMCKHYR (modifications not checked) [HPV18 E1 peptide … (position 412, 9 amino acids)]
binding affinity ratio (IC50 of standard peptide / IC50 of test peptide) [2]: 0.0012

FITFLGALK (modifications not checked) [HPV18 E1 460 …]
binding affinity ratio (IC50 of standard peptide / IC50 of test peptide) [2]: 0.032

GLSFTDLVR (modifications not checked) [HPV18 E1 223 …]
binding affinity ratio (IC50 of standard peptide / IC50 of test peptide) [2]: 0.0009

IAQLKDLLK (modifications not checked) [HPV18 E1 198 …]
binding affinity ratio (IC50 of standard peptide / IC50 of test peptide) [2]: 0.0003

LVRNFKSDK (modifications not checked) [… (HPV18 E1, position 229, 9 amino acids)]
binding affinity ratio (IC50 of standard peptide / IC50 of test peptide) [2]: 0.0005

MLIQPPKLR (modifications not checked) [… (HPV18 E1, position 312, 9 amino acids)]
binding affinity ratio (IC50 of standard peptide / IC50 of test peptide) [2]: 0.0005

NMSQWIRFR (modifications not checked) [… (HPV18 E1, position 428, 9 amino acids)]
binding affinity ratio (IC50 of standard peptide / IC50 of test peptide) [2]: 0.054

NSNAAAFLK (modifications not checked) [… (HPV18 E1, position 393, 9 amino acids)]
binding affinity ratio (IC50 of standard peptide / IC50 of test peptide) [2]: 0.0057

QMNMSQWIR (modifications not checked) [HPV18 E1 426-434 peptide …]
binding affinity ratio relative to standard peptide (IC50 standard / IC50 test) [2]: 0.0011

SVAALYWYR (modifications not checked) [HPV18 E1 322-330 peptide …]
binding affinity ratio relative to standard peptide (IC50 standard / IC50 test) [2]: 2.9

RFHNIAGHY (modifications not checked) [HPV18 E6 peptide … (position 126, 9 amino acids)]
relative binding ratio (IC50 of standard peptide / IC50 of test peptide) [2]: 0.0005

RFHNIAGHYR (modifications not checked) [HPV18 E6 peptide … (position 126, 10 amino acids)]
relative binding ratio (IC50 of standard peptide / IC50 of test peptide) [2]: 0.0023

TGLYNLLIR (modifications not checked) [HPV18 E6 peptide … (position 96, 9 amino acids)]
relative binding ratio (IC50 of standard peptide / IC50 of test peptide) [2]: 0.0005

VFEFAFKDLF (modifications not checked) [HPV18 E6 peptide … (position 44, 10 amino acids)]
relative binding ratio (IC50 of standard peptide / IC50 of test peptide) [2]: 0.0001

VVYRDSIPH (modifications not checked) [HPV18 E6 peptide … (position 54, 9 amino acids)]
relative binding ratio (IC50 of standard peptide / IC50 of test peptide) [2]: 0.12

FLKSNSQAK (modifications not checked) [HPV31 E1 372 … (A03 motif peptide)]
relative binding ratio (IC50 of standard peptide / IC50 of test peptide) (ratio to standard peptide) [2]: 0.0013

MLIQPPKLR (modifications not checked) [HPV31 E1 peptide … (position 285, 9 amino acids)]
relative binding ratio (IC50 of standard peptide / IC50 of test peptide) (ratio to standard peptide) [2]: 0.0005

FLKSNSQAK (modifications not checked) [HPV33 E1 385 peptide … (SEQ ID NO: 35888)]
relative binding ratio (IC50 of standard peptide / IC50 of test peptide) [2]: 0.0013

NSNAAAFLK (modifications not checked) [HPV33 E1 379 peptide … (SEQ ID NO: 36047)]
relative binding ratio (IC50 of standard peptide / IC50 of test peptide) [2]: 0.0057

ALLRYKCGK (modifications not checked) [HPV45 E1 270 … (SEQ ID NO: 37205)]
relative binding ratio (IC50 of standard peptide / IC50 of test peptide) [2]: 0.09

GLSFTDLVR (modifications not checked) [HPV45 E1 peptide … (position 209, 9 amino acids)]
relative binding ratio (IC50 of standard peptide / IC50 of test peptide) [2]: 0.0009

LVRNFKSDK (modifications not checked) [HPV45 E1 215-223 peptide … (SEQ ID NO: 37448)]
relative binding ratio (IC50 of the standard peptide / IC50 of the test peptide) [2]: 0.0005

NSNAAAFLK (modifications not checked) [HPV45 E1 peptide … (position 379, 9 amino acids)]
relative binding ratio (IC50 of standard peptide / IC50 of test peptide) [2]: 0.0057

SVAALYWYR (modifications not checked) [HPV45 E1 308 peptide … (SEQ ID NO: 37559)]
relative binding ratio (IC50 of standard peptide / IC50 of test peptide) [2]: 2.9

ALFTAQEAK (modifications not checked) [HPV16 E1 69 …]
relative binding ratio (IC50 of standard peptide / IC50 of test peptide) [1]: 0.4

ATMCRHYKR (modifications not checked) [HPV16 E1 406 …]
relative binding ratio (IC50 of standard peptide / IC50 of test peptide) [1]: 1.5

CATMCRHYK (modifications not checked) [HPV16 E1 405 …]
relative binding ratio (IC50 of standard peptide / IC50 of test peptide) [1]: 0.0098

DCATMCRHY (modifications not checked) [HPV16 E1 404 …]
relative binding ratio (IC50 of standard peptide / IC50 of test peptide) [1]: 0.0001

FMSFLTALK (modifications not checked) [HPV16 E1 453 …]
relative binding ratio (IC50 of standard peptide / IC50 of test peptide) [1]: 0.21

NSNASAFLK (modifications not checked) [HPV16 E1 386 …]
binding affinity ratio (IC50 of standard peptide / IC50 of test peptide) (ratio to standard peptide) [1]: 0.011

QMSMSQWIK (modifications not checked) [… (HPV16 E1, position 419, 9 amino acids)]
binding affinity ratio (IC50 of the standard peptide / IC50 of the test peptide) [1]: 0.026

SMSQWIKYR (modifications not checked) [… (HPV16 E1, position 421, 9 amino acids)]
binding affinity ratio (IC50 of the standard peptide / IC50 of the test peptide) [1]: 0.028

TAAALYWYK (modifications not checked) [… (HPV16 E1, position 315, 9 amino acids)]
binding affinity ratio (IC50 of the standard peptide / IC50 of the test peptide) [1]: 20

CTELQTTIH (modifications not checked) [… (HPV16 E6, position 23, 9 amino acids)]
binding affinity ratio (IC50 of standard peptide / IC50 of test peptide) (ratio to standard peptide) [1]: 0.0001

CVYCKQQLLR (modifications not checked) [… (HPV16 E6, position 37, 10 amino acids)]
binding affinity ratio (IC50 of standard peptide / IC50 of test peptide) (ratio to standard peptide) [1]: 0.0005

DIILECVYCK (modifications not checked) [… (HPV16 E6, position 32, 10 amino acids)]
binding affinity ratio (IC50 of standard peptide / IC50 of test peptide) (ratio to standard peptide) [1]: 0.021

EVYDFAFR (modifications not checked) [EVYDFAFR (HPV16 E6, position 48, 8 amino acids)]
binding affinity ratio (IC50 of standard peptide / IC50 of test peptide) (ratio to standard peptide) [1]: 0.0025

GTTLEQQYNK (modifications not checked) [… (HPV16 E6, position 92, 10 amino acids)]
binding affinity ratio (IC50 of standard peptide / IC50 of test peptide) (ratio to standard peptide) [1]: 0.07

HDIILECVY (modifications not checked) [… (HPV16 E6, position 31, 9 amino acids)]
binding affinity ratio (IC50 of standard peptide / IC50 of test peptide) (ratio to standard peptide) [1]: 0.0001

IILECVYCK (modifications not checked) [… (HPV16 E6, position 33, 9 amino acids)]
binding affinity ratio (IC50 of standard peptide / IC50 of test peptide) (ratio to standard peptide) [1]: 0.019

KFYSKISEY (modifications not checked) [… (HPV16 E6, position 75, 9 amino acids)]
binding affinity ratio (IC50 of standard peptide / IC50 of test peptide) (ratio to standard peptide) [1, 3]: 0.0002
